What all share (assay): FRET or BRET
Experiment [1] has as its target H-2K^b/D^b (mouse (endogenous in BMMCs)).
The target of experiment [2] is HLA-A, B, C (human (endogenous in KU812)).
The target of experiment [3] is H-2K^b/D^b (mouse (endogenous in BMMCs)). The source holds these as a separate data set.

Read-outs that look alike come from different tables or passages of the source.

In experiment [1], “β2-microglobulin (β2m), mouse (from UniProt P01887 21-119) (natural protein)” registered an FRET efficiency (%) of 8%.

In experiment [2], “leukocyte immunoglobulin (Ig)-like receptor (LILR) B2 (from UniProt Q8N423 22-597)” yielded an FRET efficiency (%) of 20.7%.

“β2-microglobulin (β2m), human (from UniProt P61769 21-119) (natural protein)” returned an FRET efficiency (%) in experiment [2] of 14.5%.

B1: paired Ig-like receptor (PIR)–B (receptor)
chain: SLPKPILRVQPDSVVSRRTKVTFLCEETIGANEYRLYKDGKLYKTVTKNKQKPENKAEFSFSNVDLSNAGQYRCSYSTQYKSSGYSDLLELVVTGHYWTPSLLAQASPVVTSGGYVTLQCESWHNDHKFILTVEGPQKLSWTQDSQYNYSTRKYHALFSVGPVTPNQRWICRCYSYDRNRPYVWSPPSESVELLVSGNLQKPTIKAEPGSVITSKRAMTIWCQGNLDAEVYFLHNEKSQKTQSTQTLQEPGNKGKFFIPSVTLQHAGQYRCYCYGSAGWSQPSDTLELVVTGIYEYYEPRLSVLPSPVVTAGGNMTLHCASDFPYDKFILTKEDKKFGNSLDTEHISSSGQYRALFIIGPTTPTHTGAFRCYGYYKNAPQLWSVPSALQQILISGLSKKPSLLTHQGHILDPGMTLTLQCFSDINYDRFALHKVGGADIMQHSSQQTDTGFSVANFTLGYVSSSTGGQYRCYGAHNLSSEWSASSEPLDILITGQLPLTPSLSVQPNHTVHSGETVSLLCWSMDSVDTFILSKEGSAQQPLRLKSKSHDQQSQAEFSMSAVTSHLSGTYRCYGAQDSSFYLLSSASAPVELTVSGPIETSTPPPTMSMPLGGLHMYLKALIGVSVAFILFLFIFIFILLRRRHRGKFRKDVQKEKDLQLSSGAEEPITRKGELQKRPNPAAATQEESLYASVEDMQTEDGVELNSWTPPEEDPQGETYAQVKPSRLRKAGHVSPSVMSREQLNTEYEQAEEGQGANNQAAESGESQDVTYAQLCSRTLRQGAAASPLSQAGEAPEEPSVYATLAAARPEAVPKDMEQ
modifications: tyrosine-phosphorylated, constitutively and after IgE stimulation (residues not given)
For B1, in experiment [3], the FRET efficiency (%) came out at 13.5%.

For the origin of these results see paper PMC2118540.
